Measurements as given in patent publication US20180155451A1 (published 2018).

T1: FcγRIIb (human, UniProt P31994 43-217)
T1 construct: extracellular domain; also called 2b; FcgRIIb
T1 sequence (looked up): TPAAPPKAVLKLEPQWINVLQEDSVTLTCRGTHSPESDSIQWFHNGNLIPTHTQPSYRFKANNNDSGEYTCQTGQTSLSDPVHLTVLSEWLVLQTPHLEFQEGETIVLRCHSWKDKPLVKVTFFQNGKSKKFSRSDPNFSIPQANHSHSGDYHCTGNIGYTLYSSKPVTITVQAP

B1: GpH7-A5/GpH7-B3 variant P271_09D/GpL16-k0 (antibody, human IgG1, kappa)
heavy 1: not shown
heavy 2: not shown
light: DIVMTQSPLSLPVTPGEPASISCQASESLVHSNRNTYLHWYLQKPGQSPQLLIYKVSNRFSGVPDRFSGSGSGTDFTLKISRVEAEDVGVYYCSQNTHVPPTFGQGTKVEIERTVAAPSVFIFPPSDEQLKSGTASVVCLLNNFYPREAKVQWKVDNALQSGNSQESVTEQDSKDSTYSLSSTLTLSKADYEKHKVYACEVTHQGLSSPVTKSFNRGEC
notes: also called He Ab P271_09D
B2: GpH7-A5/GpH7-B3 variant S239_06M/GpL16-k0 (antibody, human IgG1, kappa)
heavy 1: not shown
heavy 2: not shown
light: B1 light
notes: also called He Ab S239_06M
B3: GpH7-A5/GpH7-B3 variant T335_15Y/GpL16-k0 (antibody, human IgG1, kappa)
heavy 1: not shown
heavy 2: not shown
light: B1 light
notes: also called He Ab T335_15Y
B4: GpH7-A5/GpH7-B3 variant S239_03V/GpL16-k0 (antibody, human IgG1, kappa)
heavy 1: not shown
heavy 2: not shown
light: B1 light
notes: also called He Ab S239_03V
B5: GpH7-A5/GpH7-B3 variant S337_08L/GpL16-k0 (antibody, human IgG1, kappa)
heavy 1: not shown
heavy 2: not shown
light: B1 light
notes: also called He Ab S337_08L
B6: GpH7-A5/GpH7-B3 variant T335_07I/GpL16-k0 (antibody, human IgG1, kappa)
heavy 1: not shown
heavy 2: not shown
light: B1 light
notes: also called He Ab T335_07I
B7: GpH7-A5/GpH7-B3 variant P331_03V/GpL16-k0 (antibody, human IgG1, kappa)
heavy 1: not shown
heavy 2: not shown
light: B1 light
notes: also called He Ab P331_03V
B8: GpH7-A5/GpH7-B3 variant T335_13S/GpL16-k0 (antibody, human IgG1, kappa)
heavy 1: not shown
heavy 2: not shown
light: B1 light
notes: also called He Ab T335_13S
B9: GpH7-A5/GpH7-B3 variant S298_06M/GpL16-k0 (antibody, human IgG1, kappa)
heavy 1: not shown
heavy 2: not shown
light: B1 light
notes: also called He Ab S298_06M
B10: GpH7-A5/GpH7-B3 variant P331_20W/GpL16-k0 (antibody, human IgG1, kappa)
heavy 1: not shown
heavy 2: not shown
light: B1 light
notes: also called He Ab P331_20W
B11: GpH7-A5/GpH7-B3 variant Y296_20W/GpL16-k0 (antibody, human IgG1, kappa)
heavy 1: not shown
heavy 2: not shown
light: B1 light
notes: also called He Ab Y296_20W
B12: GpH7-A5/GpH7-B3 variant S337_18N/GpL16-k0 (antibody, human IgG1, kappa)
heavy 1: not shown
heavy 2: not shown
light: B1 light
notes: also called He Ab S337_18N
B13: GpH7-A5/GpH7-B3 variant S267_06M/GpL16-k0 (antibody, human IgG1, kappa)
heavy 1: not shown
heavy 2: not shown
light: B1 light
notes: also called He Ab S267_06M
B14: GpH7-A5/GpH7-B3 variant S267_19Q/GpL16-k0 (antibody, human IgG1, kappa)
heavy 1: not shown
heavy 2: not shown
light: B1 light
notes: also called He Ab S267_19Q
B15: GpH7-A5/GpH7-B3 variant S337_16H/GpL16-k0 (antibody, human IgG1, kappa)
heavy 1: not shown
heavy 2: not shown
light: B1 light
notes: also called He Ab S337_16H
B16: GpH7-A5/GpH7-B3 variant V266_06M/GpL16-k0 (antibody, human IgG1, kappa)
heavy 1: not shown
heavy 2: not shown
light: B1 light
notes: also called He Ab V266_06M
B17: GpH7-A5/GpH7-B3 variant S337_07I/GpL16-k0 (antibody, human IgG1, kappa)
heavy 1: not shown
heavy 2: not shown
light: B1 light
notes: also called He Ab S337_07I
B18: GpH7-A5/GpH7-B3 variant T335_18N/GpL16-k0 (antibody, human IgG1, kappa)
heavy 1: not shown
heavy 2: not shown
light: B1 light
notes: also called He Ab T335_18N
B19: GpH7-A5/GpH7-B3 variant S324_06M/GpL16-k0 (antibody, human IgG1, kappa)
heavy 1: not shown
heavy 2: not shown
light: B1 light
notes: also called He Ab S324_06M
B20: GpH7-A5/GpH7-B3 variant S239_05P/GpL16-k0 (antibody, human IgG1, kappa)
heavy 1: not shown
heavy 2: not shown
light: B1 light
notes: also called He Ab S239_05P
B21: GpH7-A5/GpH7-B3 variant T335_20W/GpL16-k0 (antibody, human IgG1, kappa)
heavy 1: not shown
heavy 2: not shown
light: B1 light
notes: also called He Ab T335_20W
B22: GpH7-A5/GpH7-B3 variant S337_20W/GpL16-k0 (antibody, human IgG1, kappa)
heavy 1: not shown
heavy 2: not shown
light: B1 light
notes: also called He Ab S337_20W
B23: GpH7-A5/GpH7-B3 variant P331_16H/GpL16-k0 (antibody, human IgG1, kappa)
heavy 1: not shown
heavy 2: not shown
light: B1 light
notes: also called He Ab P331_16H
B24: GpH7-A5/GpH7-B3 variant P331_15Y/GpL16-k0 (antibody, human IgG1, kappa)
heavy 1: not shown
heavy 2: not shown
light: B1 light
notes: also called He Ab P331_15Y
B25: GpH7-A5/GpH7-B3 variant P331_10E/GpL16-k0 (antibody, human IgG1, kappa)
heavy 1: not shown
heavy 2: not shown
light: B1 light
notes: also called He Ab P331_10E

The binders below were run against T1, FcγRIIb (assay: SPR (Biacore), binding relative to GpH7-A5/GpH7-B3/GpL16-k0 = 100).

| Binder | He/Con_2b |
| --- | --- |
| B1 | 120 % of control |
| B2 | 101 % of control |
| B3 | 108 % of control |
| B4 | 108 % of control |
| B5 | 100 % of control |
| B6 | 106 % of control |
| B7 | 119 % of control |
| B8 | 102 % of control |
| B9 | 102 % of control |
| B10 | 111 % of control |
| B11 | 103 % of control |
| B12 | 103 % of control |
| B13 | 210 % of control |
| B14 | 218 % of control |
| B15 | 105 % of control |
| B16 | 251 % of control |
| B17 | 104 % of control |
| B18 | 102 % of control |
| B19 | 112 % of control |
| B20 | 102 % of control |
| B21 | 104 % of control |
| B22 | 109 % of control |
| B23 | 116 % of control |
| B24 | 114 % of control |
| B25 | 116 % of control |
